B1: Semaphorin-3A (Mus musculus), O08665 (parent)
chain: MGWFTGIACLFWGVLLTARANYANGKNNVPRLKLSYKEMLESNNVITFNGLANSSSYHTFLLDEERSRLYVGAKDHIFSFNLVNIKDFQKIVWPVSYTRRDECKWAGKDILKECANFIKVLEAYNQTHLYACGTGAFHPICTYIEVGHHPEDNIFKLQDSHFENGRGKSPYDPKLLTASLLIDGELYSGTAADFMGRDFAIFRTLGHHHPIRTEQHDSRWLNDPRFISAHLIPESDNPEDDKVYFFFRENAIDGEHSGKATHARIGQICKNDFGGHRSLVNKWTTFLKARLICSVPGPNGIDTHFDELQDVFLMNSKDPKNPIVYGVFTTSSNIFKGSAVCMYSMSDVRRVFLGPYAHRDGPNYQWVPYQGRVPYPRPGTCPSKTFGGFDSTKDLPDDVITFARSHPAMYNPVFPINNRPIMIKTDVNYQFTQIVVDRVDAEDGQYDVMFIGTDVGTVLKVVSVPKETWHDLEEILLEEMTVFREPTTISAMELSTKQQQLYIGSTAGVAQLPLHRCDIYGKACAECCLARDPYCAWDGSSCSRYFPTAKRRTRRQDIRNGDPLTHCSDLQHHDNHHGPSLEERIIYGVENSSTFLECSPKSQRALVYWQFQRRNEDRKEEIRMGDHIIRTEQGLLLRSLQKKDSGNYLCHAVEHGFMQTLLKVTLEVIDTEHLEELLHKDDDGDGSKIKEMSSSMTPSQKVWYRDFMQLINHPNLNTMDEFCEQVWKRDRKQRRQRPGHSQGSSNKWKHMQESKKGRNRRTHEFERAPRSV
B2: Neuropilin-1 (Mus musculus), P97333 (parent)
chain: MERGLPLLCATLALALALAGAFRSDKCGGTIKIENPGYLTSPGYPHSYHPSEKCEWLIQAPEPYQRIMINFNPHFDLEDRDCKYDYVEVIDGENEGGRLWGKFCGKIAPSPVVSSGPFLFIKFVSDYETHGAGFSIRYEIFKRGPECSQNYTAPTGVIKSPGFPEKYPNSLECTYIIFAPKMSEIILEFESFDLEQDSNPPGGMFCRYDRLEIWDGFPEVGPHIGRYCGQKTPGRIRSSSGVLSMVFYTDSAIAKEGFSANYSVLQSSISEDFKCMEALGMESGEIHSDQITASSQYGTNWSVERSRLNYPENGWTPGEDSYKEWIQVDLGLLRFVTAVGTQGAISKETKKKYYVKTYRVDISSNGEDWISLKEGNKAIIFQGNTNPTDVVLGVFSKPLITRFVRIKPVSWETGISMRFEVYGCKITDYPCSGMLGMVSGLISDSQITASNQADRNWMPENIRLVTSRTGWALPPSPHPYTNEWLQVDLGDEKIVRGVIIQGGKHRENKVFMRKFKIAYSNNGSDWKTIMDDSKRKAKSFEGNNNYDTPELRTFSPLSTRFIRIYPERATHSGLGLRMELLGCEVEAPTAGPTTPNGNPVDECDDDQANCHSGTGDDFQLTGGTTVLATEKPTIIDSTIQSEFPTYGFNCEFGWGSHKTFCHWEHDSHAQLRWSVLTSKTGPIQDHTGDGNFIYSQADENQKGKVARLVSPVVYSQSSAHCMTFWYHMSGSHVGTLRVKLRYQKPEEYDQLVWMVVGHQGDHWKEGRVLLHKSLKLYQVIFEGEIGKGNLGGIAVDDISINNHISQEDCAKPTDLDKKNTEIKIDETGSTPGYEGEGEGDKNISRKPGNVLKTLDPILITIIAMSALGVLLGAVCGVVLYCACWHNGMSERNLSALENYNFELVDGVKLKKDKLNPQSNYSEA
partner: B1 chain
B3: Plexin-A2 (Mus musculus), P70207 (parent)
chain: MEQRRFYLRAMQADNLSVVLLSVAWLLLARGTTGMPQYSTFHSENRDWTFNHLTVHRRTGAVYVGAINRVYKLTGNLTIQVAHKTGPEEDNKACYPPLIVQPCSEVLTLTNNVNKLLIIDYSENRLLACGSLYQGVCKLLRLDDLFILVEPSHKKEHYLSSVNKTGTMYGVIVRSEGEDGKLFIGTAVDGKQDYFPTLSSRKLPRDPESSAMLDYELHSDFVSSLIKIPSDTLALVSHFDIFYIYGFASGGFVYFLTVQPETPDGMAINSAGDLFYTSRIVRLCKDDPKFHSYVSLPFGCTRAGVEYRLLQAAYLAKPGEALAQAFNISSDEDVLFAIFSKGQKQYHHPPDDSALCAFPIRAINLQIKERLQSCYHGEGNLELNWLLGKDVQCTKAPVPIDDNFCGLDINQPLGGSTPVEGLTLYTTSRDRLTSVASYVYNGYSVVFVGTKSGKLKKIRADGPPHGGVQYEMVSVFKDGSPILRDMAFSINQLYLYVMSERQVTRVPVESCEQYTTCGECLSSGDPHCGWCALHNMCSRRDKCQRAWEANRFAASISQCMSLEVHPNSISVSDHSRLLSLVVNDAPNLSEGIACAFGNLTEVEGQVSGSQVICISPGPKDVPVIPLDQDWFGLELQLRSKETGKIFVSTEFKFYNCSAHQLCLSCVNSAFRCHWCKYRNLCTHDPTTCSFQEGRINVSEDCPQLVPTEEILIPVGEVKPITLKARNLPQPQSGQRGYECVLSIQGAVHRVPALRFNSSSVQCQNSSYQYDGMDISNLAVDFAVVWNGNFIIDNPQDLKVHLYKCAAQRESCGLCLKADHKFECGWCSGERRCTLHQHCPSTSSPWLDWSSHNVKCSNPQITEILTVSGPPEGGTRVTIHGVNLGLDFSEIAHHVQVAGVPCTPIPGEYIIAEQIVCEMGHAVIGTTSGPVRLCIGECKPEFMTKSHQQYTFVNPSVLSLSPIRGPESGGTMVTITGHYLGAGSSVAVYLGNQTCEFYGRSMNEIVCVSPPSSNGLGPVPVSVSVDRARVDSSLQFEYIDDPRVQRIEPEWSITSGHTPLTITGFNLDVIQEPRVRVKFNGKESVNVCTVVNTTTLTCLAPSLTSDYRPGLDTVERPDEFGFLFNNVQSLLIYNDTKFIYYPNPTFELLSPTGILDQKPGSPIILKGKNLCPPASGGAKLNYTVMIGETPCTVTVSETQLLCEPPNLTGQHKVMVHVGGMVFSPGSVSVISDSLLTLPAIISIAAGGSLLLIIVIIVLIAYKRKSRENDLTLKRLQMQMDNLESRVALECKEAFAELQTDINELTSDLDRSGIPYLDYRTYAMRVLFPGIEDHPVLRELEVQGNGQQHVEKALKLFAQLINNKVFLLTFIRTLELQRSFSMRDRGNVASLIMTGLQGRLEYATDVLKQLLSDLIDKNLENKNHPKLLLRRTESVAEKMLTNWFAFLLHKFLKECAGEPLFMLYCAIKQQMEKGPIDAITGEARYSLSEDKLIRQQIEYKTLILNCVNPDNENSPEIPVKVLNCDTITQVKEKILDAVYKNVPYSQRPRAVDMDLEWRQGRIARVVLQDEDITTKIEGDWKRLNTLMHYQVSDRSVVALVPKQTSSYNIPASASISRTSISRYDSSFRYTGSPDSLRSRVPMITPDLESGVKVWHLVKNHDHGDQKEGDRGSKMVSEIYLTRLLATKGTLQKFVDDLFETLFSTVHRGSALPLAIKYMFDFLDEQADRHSIHDTDVRHTWKSNCLPLRFWVNVIKNPQFVFDIHKGSITDACLSVVAQTFMDSCSTSEHRLGKDSPSNKLLYAKDIPSYKNWVERYYADIAKLPAISDQDMNAYLAEQSRLHATEFNMLSALNEIYSYVSKYSEELIGALEQDEQARRQRLAYKVEHLINAMSIES
B4: Neuropilin-1 (Mus musculus), P97333 (parent)
chain: B2 chain

Variants of: B1
Settings: with nrp1_mouse Nrp1, P97333

Variant | effect of a mutation on the interaction
L353N;P355S | decreasing interaction strength

Variants of: B2
Settings: with sem3a_mouse Sema3a

Variant | effect of a mutation on the interaction
P73A;H74S | disrupting interaction strength

Variants of: B3
Settings: with nrp1_mouse Nrp1, P97333

Variant | effect of a mutation on the interaction
F275N | decreasing interaction strength

Variants of: B4
Settings: with plxa2_mouse Plxna2, P70207

Variant | effect of a mutation on the interaction
P73A;H74S | disrupting interaction strength

From IntAct's records for PubMed 23104057
